Assays:
[1] = Plasma insulin levels by RIA method after injection or mouth spray in diabetic volunteers; type: in vivo, human
Method: (§1) Ten diabetic volunteers were asked to fast overnight and not have any breakfast prior to dosing. On the first day, the volunteers were given 10 units insulin by injection (regular fast acting insulin, obtained from Eli Lilly). On the second day, the volunteers were given 60 units insulin of this example (10 puffs of 6 units each) into the mouth, without inhalation. Plasma insulin levels were measured at intervals by the RIA method for 3 hours. Blood glucose levels were also monitored at intervals using Bayer's glucometer Elite for 3 hours.
(§2) Tests were also conducted with 40 units of spray at 10 puffs each, and compared to 10 units injected by measuring plasma levels and glucose levels as above. The results are shown in Table 7 (plasma) and 8 (glucose).
as §1, with “injection.” for “injection (regular fast acting insulin, obtained from Eli Lilly).”
(§3) On the first day, each patient had 7 units regular fast acting insulin, obtained from Eli Lilly, administered by injection. On the second day, each patient was given 70 units of the insulin formulation of this Example (7 puffs of 10 unit each) into the mouth, without inhalation. Blood samples were collected and plasma glucose levels were measured at intervals using Bayer's glucometer Elite for 3 hours. Insulin levels were also monitored at intervals by the RIA method for 3 hours.

[2] = system: blood glucose levels; experiment: Blood glucose levels by Bayer's glucometer Elite after injection or mouth spray in fasted diabetic volunteers; type: in vivo, human
Method: as §1, §2
as §1, with “injection.” for “injection (regular fast acting insulin, obtained from Eli Lilly).”
as §3

[3] = time 0 min, insulin 10 units by injection, Example 2 60 units by mouth spray, average of ten fasted diabetic volunteers
[4] = time 0 min, insulin 10 units by injection, Example 3 60 units by mouth spray, average of ten fasted diabetic volunteers
[5] = time 0 min, insulin 10 units injected, Example 2 40 units of spray, measured as above
[6] = time 15 min, insulin 10 units by injection, Example 2 60 units by mouth spray, average of ten fasted diabetic volunteers
[7] = time 15 min, insulin 10 units by injection, Example 3 60 units by mouth spray, average of ten fasted diabetic volunteers
[8] = time 15 min, insulin 10 units injected, Example 2 40 units of spray, measured as above
[9] = time 30 min, insulin 10 units by injection, Example 2 60 units by mouth spray, average of ten fasted diabetic volunteers
[10] = time 30 min, insulin 10 units by injection, Example 3 60 units by mouth spray, average of ten fasted diabetic volunteers
[11] = time 30 min, insulin 10 units injected, Example 2 40 units of spray, measured as above
[12] = time 45 min, insulin 10 units by injection, Example 2 60 units by mouth spray, average of ten fasted diabetic volunteers
[13] = time 45 min, insulin 10 units by injection, Example 3 60 units by mouth spray, average of ten fasted diabetic volunteers
[14] = time 60 min, insulin 10 units by injection, Example 2 60 units by mouth spray, average of ten fasted diabetic volunteers
[15] = time 60 min, insulin 10 units by injection, Example 3 60 units by mouth spray, average of ten fasted diabetic volunteers
[16] = time 60 min, insulin 10 units injected, Example 2 40 units of spray, measured as above
[17] = time 90 min, insulin 10 units by injection, Example 2 60 units by mouth spray, average of ten fasted diabetic volunteers
[18] = time 90 min, insulin 10 units by injection, Example 3 60 units by mouth spray, average of ten fasted diabetic volunteers
[19] = time 90 min, insulin 10 units injected, Example 2 40 units of spray, measured as above
[20] = time 120 min, insulin 10 units by injection, Example 2 60 units by mouth spray, average of ten fasted diabetic volunteers
[21] = time 120 min, insulin 10 units by injection, Example 3 60 units by mouth spray, average of ten fasted diabetic volunteers
[22] = time 120 min, insulin 10 units injected, Example 2 40 units of spray, measured as above
[23] = time 150 min, insulin 10 units by injection, Example 2 60 units by mouth spray, average of ten fasted diabetic volunteers
[24] = time 150 min, insulin 10 units by injection, Example 3 60 units by mouth spray, average of ten fasted diabetic volunteers
[25] = time 150 min, insulin 10 units injected, Example 2 40 units of spray, measured as above
[26] = time 180 min, insulin 10 units by injection, Example 2 60 units by mouth spray, average of ten fasted diabetic volunteers
[27] = time 180 min, insulin 10 units by injection, Example 3 60 units by mouth spray, average of ten fasted diabetic volunteers
[28] = time 180 min, insulin 10 units injected, Example 2 40 units of spray, measured as above

insulin
Plasma insulin level [1, 3]: 10 micromoles per ml | Plasma insulin level [1, 4]: 9 micromoles per ml | Plasma insulin level [1, 5]: 9 micromoles per ml | Plasma insulin level [1, 6]: 9.1 micromoles per ml | Plasma insulin level [1, 7]: 9.1 micromoles per ml | Plasma insulin level [1, 8]: 9 micromoles per ml | Plasma insulin level [1, 9]: 11 micromoles per ml | Plasma insulin level [1, 10]: 14 micromoles per ml | Plasma insulin level [1, 11]: 13 micromoles per ml | Plasma insulin level [1, 12]: 16 micromoles per ml | Plasma insulin level [1, 13]: 20 micromoles per ml | Plasma insulin level ([1]; time 45 min, insulin 10 units injected, Example 2 40 units of spray, measured as above): 19 micromoles per ml | Plasma insulin level [1, 14]: 31 micromoles per ml | Plasma insulin level [1, 15]: 40 micromoles per ml | Plasma insulin level [1, 16]: 34 micromoles per ml | Plasma insulin level [1, 17]: 45 micromoles per ml | Plasma insulin level [1, 18]: 48 micromoles per ml | Plasma insulin level [1, 19]: 45 micromoles per ml | Plasma insulin level [1, 20]: 32 micromoles per ml | Plasma insulin level [1, 21]: 39 micromoles per ml | Plasma insulin level [1, 22]: 42 micromoles per ml | Plasma insulin level [1, 23]: 25 micromoles per ml | Plasma insulin level [1, 24]: 34 micromoles per ml | Plasma insulin level [1, 25]: 35 micromoles per ml | Plasma insulin level [1, 26]: 20 micromoles per ml | Plasma insulin level [1, 27]: 27 micromoles per ml | Plasma insulin level [1, 28]: 24 micromoles per ml | Blood glucose level [2, 3]: 6.1 millimoles per liter | Blood glucose level [2, 4]: 6.6 millimoles per liter | Blood glucose level [2, 5]: 5.8 millimoles per liter | Blood glucose level [2, 6]: 6.0 millimoles per liter | Blood glucose level [2, 7]: 6.5 millimoles per liter | Blood glucose level [2, 8]: 6.0 millimoles per liter | Blood glucose level [2, 9]: 5.9 millimoles per liter | Blood glucose level [2, 10]: 6.1 millimoles per liter | Blood glucose level [2, 11]: 5.9 millimoles per liter | Blood glucose level [2, 12]: 5.5 millimoles per liter | Blood glucose level [2, 13]: 5.5 millimoles per liter | Blood glucose level [2, 14]: 5.1 millimoles per liter | Blood glucose level [2, 15]: 4.9 millimoles per liter | Blood glucose level [2, 16]: 5.5 millimoles per liter | Blood glucose level [2, 17]: 4.5 millimoles per liter | Blood glucose level [2, 18]: 4.5 millimoles per liter | Blood glucose level [2, 19]: 5.0 millimoles per liter | Blood glucose level [2, 20]: 3.8 millimoles per liter | Blood glucose level [2, 21]: 3.8 millimoles per liter | Blood glucose level [2, 22]: 4.5 millimoles per liter | Blood glucose level [2, 23]: 4.2 millimoles per liter | Blood glucose level [2, 24]: 3.5 millimoles per liter | Blood glucose level [2, 25]: 4.1 millimoles per liter | Blood glucose level [2, 26]: 4.4 millimoles per liter | Blood glucose level [2, 27]: 4.4 millimoles per liter | Blood glucose level [2, 28]: 3.9 millimoles per liter

Reference: patent US7087215B2 (priority 1998, dated 2006)
